Test results taken from PMC10457330.

Experiments:
[1] = molecular target: photoactivated bovine rhodopsin (bovine) (UniProt P02699)
[2] = molecular target: photoactivated bovine rhodopsin (bovine) (UniProt P02699); remark: listed apart in the source
[3] = molecular target: P23H bovine opsin (bovine) (UniProt P02699)

B1: Nb2 (llama nanobody against bovine rhodopsin) (VHH)
VHH: QVQLVESGGGLVQPGGSLRLSCAASGFTFSKYAMNWVRQPPGKGLEWVSGIRPSGDNPTYADSVEGRFTIIRDNDKKMVYLQMTSLKTEDTAVYYCTRGYGTMTIEGQGTQVTVSS
B1 was tested, and the UV-Vis decay of A478 nm after addition of 5 mM hydroxylamine, plateau against bRho* alone [1] was 4 times, the intrinsic Trp fluorescence at 330 nm after illumination (Meta II decay, release of retinal) [2] was 3 fold and the opsin level by western blot (1D4) in HEK293S cells co-expressing Nb2 intracellularly, against the non-binding Nb16 control [3] was 2 fold.
